2 proteins from PMC8628261 (Cell reports, 2021) can be followed below.

In general, Kd refers to a measure of binding affinity in units of concentration. A lower Kd goes with a tighter complex. For orientation: stoichiometry N means a count of units in the complex or per binding partner.

This data set concerns the molecule itself. The data set is described as follows: AUC.

B1: mouse Kirrel3 ectodomain, wild type (domain or fragment, UniProt Q8BR86 22-535, looked up)
chain: LQKRGCCLVLGYMAKDKFRRMNEGQVYSFSQQPQDQVVVSGQPVTLLCAIPEYDGFVLWIKDGLALGVGRDLSSYPQYLVVGNHLSGEHHLKILRAELQDDAVYECQAIQAAIRSRPARLTVLVPPDDPIILGGPVISLRAGDPLNLTCHADNAKPAASIIWLRKGEVINGATYSKTLLRDGKRESIVSTLFISPGDVENGQSIVCRATNKAIPGGKETSVTIDIQHPPLVNLSVEPQPVLEDNIVTFHCSAKANPAVTQYRWAKRGHIIKEASGELYRTTVDYTYFSEPVSCEVTNALGSTNLSRTVDVYFGPRMTSEPQSLLVDLGSDAVFSCAWIGNPSLTIVWMKRGSGVVLSNEKTLTLKSVRQEDAGKYVCRAVVPRVGAGEREVTLTVNGPPIISSTQTQHALHGEKGQIKCFIRSTPPPDRIAWSWKENVLESGTSGRYTVETVNTEEGVISTLTISNIVRADFQTIYNCTAWNSFGSDTEIIRLKEQGSEMKSGAGLEAESVPMA
On to B1, for which the Kd is 210 nM and the “stoichiometry N” value was found to be 2.

B2: mouse Kirrel2 ectodomain, wild type (domain or fragment, UniProt Q7TSU7 20-507, looked up)
chain: SPHFLQQPEDMVVLLGEEARLPCALGAYRGLVQWTKDGLALGGERDLPGWSRYWISGNSASGQHDLHIKPVELEDEASYECQASQAGLRSRPAQLHVMVPPEAPQVLGGPSVSLVAGVPGNLTCRSRGDSRPAPELLWFRDGIRLDGSSFHQTTLKDKATGTVENTLFLTPSSHDDGATLICRARSQALPTGRDTAVTLSLQYPPMVTLSAEPQTVQEGEKVTFLCQATAQPPVTGYRWAKGGSPVLGARGPRLEVVADATFLTEPVSCEVSNAVGSANRSTALEVLYGPILQAKPKSVSVDVGKDASFSCVWRGNPLPRITWTRMGGSQVLSSGPTLRLPSVALEDAGDYVCRAEPRRTGLGGGKAQARLTVNAPPVVTALQPAPAFLRGPARLQCVVFASPAPDSVVWSWDEGFLEAGSLGRFLVEAFPAPEVEGGQGPGLISVLHISGTQESDFTTGFNCSARNRLGEGRVQIHLGRRDLLPTVR
Turning to B2, the Kd came to 900 nM and the “stoichiometry N” value came to 2.
